Positions count from the first letter of the chain named. In names and notes the source's numbering stands. Several values for one entry are separate records, joined by “and”; a condition that tells them apart may be missing. Identical values can stand only once. Entries after “also recorded” stand apart in the source; their conditions may differ. Like-named read-outs stand apart in the source and are kept apart here.
What was measured:
Ramos cells = experiment: In vitro drug combinations with SGN-40, 3H-thymidine proliferation, Combination Index; type: cell-based; conditions: for Combination Index at ED50 / Combination Index at ED75 / Combination Index at ED90: drug with cross-linked SGN-40 (30.0-0.0586 ng/ml), Ramos cells 2% FBS, 72 hours
Description: Cells were treated for 72 hours, then labeled with ^3H-thymidine for 4 hours to measure proliferation rates. Dose response curves of drugs alone and in combination with the humanized CD40 antibody were reduced in Excel, and Combination Indices (CI) determined using the Calcusyn analysis package (Biosoft). […] CI values equal to 1.0 indicate an additive integration. For these studies, n=3 unless otherwise indicated.

[1] = system: Ramos Burkitt's lymphoma cells; experiment: Combination therapy with CHOP or prednisone, subcutaneous Ramos Burkitt's lymphoma in SCID mice; type: in vivo, C.B.-17 SCID mice
Description: To model localized lymphoma, 5×10^6 Ramos Burkitt's lymphoma cells were implanted subcutaneously into the right flank of C.B.-17 SCID mice (Harlan, Indianapolis, Ind.). Therapy was initiated when the mean tumor size in each group of five animals was 100 mm^3. CHOP was used for a single course, alone or in combination with humanized CD40 antibody (hu sgn-0; SGN-40), using the following dose schedule: cyclophosphamide at 30 mg/kg, i.v. qld x 1; doxorubicin at 2.475 mg/kg, i.v. qld x 1; vincristine at 0.375 mg/kg, i.v. qld x 1; and prednisone at 0.15 mg/kg, p.o. q1d x 5. The CD40 antibody was administered i.p. at 4 mg/kg q4d x 4 when used alone or in combination with prednisone or CHOP. Tumor size was determined using the formula (L×W^2)/2.
To compare the effect of SGN-40 treatment alone or in combination with CHOP or prednisone, SCID mice were subcutaneously implanted with Ramos cells, and dosed with SGN-40 alone or in combination with CHOP as described above. In addition, prednisone steroid was administered alone (0.15 mg/kg, qld x 5 po) or in combination with SGN-40 (4.0 mg/kg, q4d x 4 ip).

[2] = target: CD40 immobilized on microassay plates (UniProt P25942 21-193, limits assumed); experiment: serially diluted antibody on CD40 immobilized on microassay plates
Chain of CD40 immobilized on microassay plates (P25942 21-193 limits assumed): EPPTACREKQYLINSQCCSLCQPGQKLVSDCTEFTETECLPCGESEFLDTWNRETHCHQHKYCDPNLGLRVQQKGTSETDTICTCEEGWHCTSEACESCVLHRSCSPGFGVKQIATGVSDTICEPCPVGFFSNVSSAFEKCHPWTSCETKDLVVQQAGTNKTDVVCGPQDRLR
Description: Antibodies constructed using these variant light and heavy chain variable domains were analyzed for binding activity. Each antibody was diluted to equivalent concentrations, and then serially diluted. The diluted antibodies were assayed for binding to CD40 immobilized on microassay plates.

CD40 = CD40 (Homo sapiens, UniProt P25942); experiment: Binding of variant antibodies to CD40 immobilized on microassay plates; parameters: Binding Data 1 / Binding Data 2 / Binding Data 3: unit not given here; conditions: for binding activity compared with the parent murine antibody: in words; for Binding Data 2 / Binding Data 1: affinity binding data, serially diluted antibody on immobilized CD40
Chain of CD40 (P25942 21-277): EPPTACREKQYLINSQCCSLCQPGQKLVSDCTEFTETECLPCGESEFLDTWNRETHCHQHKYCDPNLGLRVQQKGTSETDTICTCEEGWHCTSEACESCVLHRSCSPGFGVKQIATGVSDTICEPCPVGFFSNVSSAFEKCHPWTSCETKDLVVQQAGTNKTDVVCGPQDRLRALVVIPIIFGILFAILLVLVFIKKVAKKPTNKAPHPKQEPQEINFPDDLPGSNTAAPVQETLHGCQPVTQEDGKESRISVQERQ
Description: Antibodies constructed using these variant light and heavy chain variable domains were analyzed for binding activity. Each antibody was diluted to equivalent concentrations, and then serially diluted. The diluted antibodies were assayed for binding to CD40 immobilized on microassay plates. Affinity binding data for the variant antibodies are shown below in Table 3.

[3] = drug with cross-linked SGN-40, Ramos cells

TNFα
Combination Index at ED50 (Ramos cells): 0.70 | Combination Index at ED75 (Ramos cells): 0.61 | Combination Index at ED90 (Ramos cells): 0.60 | Effect (of combination with SGN-40) (Ramos cells; [3]): Synergistic

O=C1c2c(O)ccc(O)c2C(=O)c2c(NCCNCCO)ccc(NCCNCCO)c21 [Mitoxantrone]
Effect (of combination with SGN-40) (Ramos cells; [3]): Syn. → Add. | Effect (of combination with SGN-40) (Ramos cells; drug with cross-linked SGN-40, Ramos cells, listed as mitoxantrone): additive

C[C@]12C=CC(=O)C=C1CC[C@@H]1[C@@H]2C(=O)C[C@@]2(C)[C@H]1CC[C@]2(O)C(=O)CO [prednisone]
effect on tumor growth, administered alone ([1]; CHOP single course, prednisone 0.15 mg/kg p.o. q1d x 5): little effect | efficacy in combination with humanized CD40 antibody (SGN-40) ([1]; SGN-40 4 mg/kg i.p. q4d x 4 plus CHOP or prednisone): greater efficacy

Bleomycin
Effect (of combination with SGN-40) (Ramos cells): Synergistic

COc1cc([C@@H]2c3cc4c(cc3[C@@H](O[C@@H]3O[C@@H]5CO[C@@H](C)O[C@H]5[C@H](O)[C@H]3O)[C@H]3COC(=O)[C@H]23)OCO4)cc(OC)c1O [Etoposide]
Effect (of combination with SGN-40) (Ramos cells; [3]): Antagonistic. → Add.

N[C@@H](Cc1ccc(N(CCCl)CCCl)cc1)C(=O)O [Melphalan]
Effect (of combination with SGN-40) (Ramos cells; [3]): Additive | Effect (of combination with SGN-40) (Ramos cells; drug with cross-linked SGN-40, Ramos cells, listed as melphalan): additive

N.N.[Cl][Pt][Cl] [Cisplatin]
Combination Index at ED50 (Ramos cells): 1.04 | Combination Index at ED75 (Ramos cells): 0.89 | Combination Index at ED90 (Ramos cells): 0.78 | Effect (of combination with SGN-40) (Ramos cells; [3]): Additive → Syn. | Effect (of combination with SGN-40) (Ramos cells; drug with cross-linked SGN-40, Ramos cells, listed as cisplatin): additive

Nc1ccn([C@@H]2O[C@H](CO)[C@@H](O)[C@@H]2O)c(=O)n1 [Ara-C]
Combination Index at ED50 (Ramos cells): 0.95 | Combination Index at ED75 (Ramos cells): 0.90 | Combination Index at ED90 (Ramos cells): 0.90 | Effect (of combination with SGN-40) (Ramos cells; [3]): Additive

B1: SGN-14 (parent murine antibody, donor) (antibody, V domains shown)
VH: EVQLQQSGPDLVKPGASVKISCKASGYSFTGYYIHWVKQSHGKSLEWIGRVIPNNGGTSYNQKFKGKAILTVDKSSSTAYMELRSLTSEDSAVYYCAREGIYWWGHGTTLTVS
VL: DVVVTQTPLSLPVSLGAQASISCRSSQSLVHSNGNTFLHWYLQKPGQSPKLLIYTVSNRFSGVPDRFSGSGSGTDFTLKISRVEAEDLGVYFCSQTTHVPWTFGGGTKLEIQR
notes: Murine monoclonal antibody; also called S2C6; murine CD40 donor antibody
Binding Data 1 [2]: 1 | Binding Data 2 [2]: 1.33

B2: hu sgn-1 (antibody, V domains shown)
VH: EVQLVESGGGLVQPGGSLRLSCAASGYSFTGYYIHWVRQAPGKGLEWVARVIPNNGGTSYNQKFKGRFTISVDNSKNTLYLQMNSLRAEDTAVYYCAREGIYWWGQGTLVTVS
VL: DIQMTQSPSSLSASVGDRVTITCRSSQSLVHSNGNTFLHWYQQKPGKAPKLLIYTVSNRFSGVPSRFSGSGSGTDFTLTISSLQPEDFATYYCSQTTHVPWTFGQGTKVEIKR
Binding Data 1 [2]: 23.6 | Binding Data 2 [2]: 19.3

B3: hu sgn-19: humanized CD40 antibody variant, heavy SEQ ID NO: 7, light SEQ ID NO: 16 (Y92F) (antibody, V domains shown)
VH: B2 VH with I70L, L79A
VL: B2 VL with Y92F
binding activity compared with the parent murine antibody (CD40): approaching that of the parent murine antibody

B4: hu sgn-16: humanized CD40 antibody variant, heavy SEQ ID NO: 9 (F68A I69L R72V), light SEQ ID NO: 14 (antibody, V domains shown)
VH: B2 VH with F68A, I70L
VL: B2 VL
Binding Data 2 (CD40): 1.82 and 1.83

B5: hu sgn-14: humanized CD40 antibody variant, heavy SEQ ID NO: 7 (I70L R72V L79A), light SEQ ID NO: 14 (antibody, V domains shown)
VH: B2 VH with I70L, L79A
VL: B2 VL
Binding Data 1 (CD40): 1/11 and 0.86 and 0.77 | Binding Data 2 (CD40): 0.69 and 0.77

B6: hu sgn-4 (antibody, V domains shown)
VH: B2 VH with F68A, I70L, L79A
VL: B2 VL
Binding Data 2 [2]: 2.46

B7: hu sgn-22 (antibody, V domains shown)
VH: B2 VH with N55A, I70L, L79A
VL: B2 VL
Binding Data 1 (CD40): 1.44 and 1.41 and 1.80 and 0.93 | binding activity compared with the parent murine antibody (CD40): approaching that of the parent murine antibody | Binding Data 2 [2]: 0.84

B8: hu sgn-23 (antibody, V domains shown)
VH: B2 VH with N55Q, I70L, L79A
VL: B2 VL
binding activity compared with the parent murine antibody (CD40): approaching that of the parent murine antibody | Binding Data 2 [2]: 0.9

B9: hu sgn-2 (antibody, V domains shown)
VH: B2 VH with V72R, N74K
VL: B2 VL
Binding Data 1 [2]: 471 | Binding Data 2 [2]: 371

B10: hu sgn-17 (antibody, V domains shown)
VH: B2 VH with F68A, I70L, L79A
VL: B2 VL with I2V, M4V
Binding Data 2 [2]: 3.56

B11: hu sgn-15 (antibody, V domains shown)
VH: B2 VH with F68A, L79A
VL: B2 VL
Binding Data 2 [2]: 2.71

B12: hu sgn-26 (antibody, V domains shown)
VH: B2 VH with N55A, I70L, L79A
VL: B2 VL with Y92F
Binding Data 1 (CD40): 1.02 and 1.06 | binding activity compared with the parent murine antibody (CD40): approaching that of the parent murine antibody; also recorded: more closely approaching that of the parent murine antibody; also recorded: best performance | Binding Data 2 [2]: 0.92

B13: hu sgn-27 (antibody, V domains shown)
VH: B2 VH with N55Q, I70L, L79A
VL: B2 VL with Y92F
Binding Data 1 (CD40): 1.04 and 1.03 and 0.94 and 0.83 | binding activity compared with the parent murine antibody (CD40): approaching that of the parent murine antibody; also recorded: more closely approaching that of the parent murine antibody | Binding Data 2 [2]: 1.4

B14: hu sgn-18 (antibody, V domains shown)
VH: B2 VH with F68A, I70L, L79A
VL: B2 VL with Y92F
Binding Data 1 (CD40): 0.96 and 0.67 | binding activity compared with the parent murine antibody (CD40): approaching that of the parent murine antibody; also recorded: more closely approaching that of the parent murine antibody | Binding Data 2 [2]: 1.03

Reference: patent US20090304687A1, “METHODS OF USING CD40 BINDING AGENTS” (Seattle Genetics , Inc., priority 2005, published 2009)
